Experimental data: US20220281931

Molecular target: Strep II-Avi BCL6^5-360

B1: Flag-SIAH1^FL (protein)
chain: MSRQTATALPTGTSKCPPSQRVPALTGTTASNNDLASLFECPVCFDYVLPPILQCQSGHLVCSNCRPKLTCCPTCRGPLGSIRNLAMEKVANSVLFPCKYASSGCEITLPHTEKADHEELCEFRPYSCPCPGASCKWQGSLDAVMPHLMHQHKSITTLQGEDIVFLATDINLPGAVDWVMMQSCFGFHFMLVLEKQEKYDGHQQFFAIVQLIGTRKQAENFAYRLELNGHRRRLTWEATPRSIHEGIATAIMNSDCLVFDTSIAQLFAENGNLGINVTISMC
in vitro ubiquitination (western blot, Strep tag II antibody): BCL6 is a substrate for SIAH1 (FIG. 10D), and that the rate and magnitude of ubiquitination is accelerated by BI-3802 (FIG. 4B)
